In patent US20080280358A1 (University of California, published 2008):

Molecular target: Purified rabbit muscle actin (Cytoskeleton Inc.) (rabbit, UniProt P68135 3-377)
Experiment: cell-based or functional assay

Binder | bundling activity at 1:1 molar ratio to actin | bundling activity at molar ratio peptide:actin = 1:1 | bundling when the peptide is present during polymerization | effective peptide to actin ratio for bundling | molar ratio of peptide to actin giving half-bundled and half-F-actin (co-polymerization, centrifugation, SDS-PAGE) | molar ratio of peptide:actin to bundle all the F-actin during polymerization | bundling activity at molar ratio 100:1 | bundling activity at molar ratio to actin of 10 and 50 | bundling activity at molar ratio 10:1 and 100:1
GIVRKWISRFEVWPYLKK [SS2 active peptide (SuSy 377-392)] | 1 molar ratio peptide:actin | 1 molar ratio peptide:actin | 2 molar ratio peptide:actin | 1 molar ratio peptide:actin | 0.5 molar ratio peptide:actin | 1 molar ratio peptide:actin |  |  | 
GIVRKWISRFEVWPYL [SS12 active synthetic peptide] | 1 molar ratio peptide:actin | 1 molar ratio peptide:actin |  | 1 molar ratio peptide:actin |  |  | 100 molar ratio peptide:actin | 50 molar ratio peptide:actin | 
GIVRKAISRFEVAPYL [SS15 less active synthetic peptide] |  | 1 molar ratio peptide:actin |  | ~16 molar ratio peptide:actin |  |  |  |  | 10 molar ratio peptide:actin
